{"source": "the DeepSol protein solubility set", "data": [{"test": "soluble on expression in E. coli; label from the status in PepcDB or PDB records", "values": [{"sequence": "MRTSIATVCLSGTLAEKLRAAADAGFDGVEIFEQDLVVSPHSAEQIRQRAQDLGLTLDLFQPFRDFEGVEEEQFLKNLHRLEEKFKLMNRLGIEMILLCSNVGTATINDDDLFVEQLHRAADLAEKYNVKIAYEALAWGKFVNDFEHAHALVEKVNHKALGTCLDTFHILSRGWETDEVENIPAEKIFFVQLADAPKLSMDILSWSRHHRVFPGEGDFDLVKFMVHLAKTGYDGPISLEIFNDSFRKAEVGRTAIDGLRSLRWLEDQTWHALNAEDRPSALELR", "soluble on expression in E. coli": "not soluble"}, {"sequence": "MLPLNATITQIIEESPLIRTFFFDHKFEDMEPGQFVMVWVRGVDEVPMGLSRNNSITVQKVGEATSKLFELKEGDSFGLRGPFGKGFTLPAKGEKVLIIAGGVGAAPLSPYAEAAFAAGAEVNTVLGARSEEHLLFEGRFEALGTVYVSTDDGSKGFKGFVTDVLKNLDVTSYDRIAVCGPEIMMASVFRFLEEREVLEKSEFSLHRYFKCGIGVCGACCIDRSGLRVCKDGPVFSGTQLIGSELGKYSRDASGRRVKI", "soluble on expression in E. coli": "not soluble"}, {"sequence": "SLIMRYADSGLCGTVSQNMADARTRAESTDLSETSPDE", "soluble on expression in E. coli": "soluble"}, {"sequence": "STGPVAPLPTPPNFPNDIALFQQAYQNWSKEIMLDATWVCSPKTPQDVVRLANWAHEHDYKIRPRGAMHGWTPLTVEKGANVEKVILADTMTHLNGITVNTGGPVATVTAGAGASIEAIVTELQKHDLGWANLPAPGVLSIGGALAVNAHGAALPAVGQTTLPGHTYGSLSNLVTELTAVVWNGTTYALETYQRNDPRITPLLTNLGRCFLTSVTMQAGPNFRQRCQSYTDIPWRELFAPKGADGRTFEKFVAESGGAEAIWYPFTEKPWMKVWTVSPTKPDSSNEVGSLGSAGSLVGKPPQAREVSGPYNYIFSDNLPEPITDMIGAINAGNPGIAPLFGPAMYEITKLGLAATNANDIWGWSKDVQFYIKATTLRLTEGGGAVVTSRANIATVINDFTEWFHERIEFYRAKGEFPLNGPVEIRCCGLDQAADVKVPSVGPPTISATRPRPDHPDWDVAIWLNVLGVPGTPGMFEFYREMEQWMRSHYNNDDATFRPEWSKGWAFGPDPYTDNDIVTNKMRATYIEGVPTTENWDTARARYNQIDPHRVFTNGFMDKLLP", "soluble on expression in E. coli": "soluble"}, {"sequence": "MPKIILVSHSKEIASGTKSLLKQMAGDVDIIPIGGLPDGSIGTSFDIIQEVLTKLEDDALCFYDIGSSEMNVDMAIEMYDGNHRVLKVDAPIVEGSFIAAVKLSIGGSIDDALAEIKQSFLEHHHHHH", "soluble on expression in E. coli": "soluble"}, {"sequence": "MSLKVSVIIPTYNERENLEELFSRIDNALQGLNYEIVVVDDDSPDRTWEKAQELSSKYPVKVIRRTKEKGLSSAVIRGFKEASGDVFVVMDADLQHPPEVIPKLIEAIKNGSDIAIGSRYVKGGKVENWPFYRKLISKGAIMVGRIALPKIRDIKDPVSGFFALRKEVVEGVELNPIGFKILMEILIKGKYSKVVEVPFTFGIRARGESKLKGKTIFEYLRHIYRLMKWEGEIDREGHHHHHH", "soluble on expression in E. coli": "soluble"}, {"sequence": "RPDPFPQNGLPAARLAMVAREMGHIAPFVRAVYAAQFGRGLVISDPQVLAECWAEAGLPPEAMEQAKSPEIKAALFAQGERAAALDLFGAPSFVVGEEVFWGDDRLDQALALAAQS", "soluble on expression in E. coli": "not soluble"}, {"sequence": "INDPAKSAAPYHDEFPLFRSANMASPDKLSTGIGFHSFRIPAVVRTTTGRILAFAEGRRHTNQDFGDINLVYKRTKTTANNGASPSDWEPLREVVGSGAGTWGNPTPVVDDDNTIYLFLSWNGATYSQNGKDVLPDGTVTKKIDSTWEGRRHLYLTESRDDGNTWSKPVDLTKELTPDGWAWDAVGPGNGIRLTTGELVIPAMGRNIIGRGAPGNRTWSVQRLSGAGAEGTIVQTPDGKLYRNDRPSQKGYRMVARGTLEGFGAFAPDAGLPDPACQGSVLRYNSDAPARTIFLNSASGTSRRAMRVRISYDADAKKFNYGRKLEDAKVSGAGHEGGYSSMTKTGDYKIGALVESDFFNDGTGKNSYRAIIWRRFNLSWILNGPNN", "soluble on expression in E. coli": "soluble"}, {"sequence": "MTYILKTNQLTKVFKGKEVISSVNMHVKKGEIYGFLGPNGAGKTTIMKMITNLIKPTSGEIEIFGEKLTDTSYEVLKRMGTIIEYPIFYDKLTAKENLELHCEYMGYYDKNEIDHALHLVKLQGIDNKKVKDFSLGMKQRLGIARAIVTKPELLILDEPINGLDPIGIKELRDLFKMLCKEYGITLLVSSHILGEMELMADTIGVIQNGKLIKEVSMKSINGKQTEYIEITVPDVKRAAYILEDKLGIKNYKIMSGNMIRVYDTAVSQQAISKALIMNDVEIESINKKHSSLEEYFLNVMDGEGIHA", "soluble on expression in E. coli": "not soluble"}, {"sequence": "DQPGHYVGTDPNLGALSAFLAGETEEVPDANEIMPVLWDMVTTGVAQGESARAVRTAFVSNPSAALTGLSESLVPAEKQPGRVVESGLVRAKFTASNDESGSSHHRAPWIAVLELLGSLDAMTDQSGKPIELETDAPAPAGKKLSEGVVAKRALLAEIKELAGENAVAIVKTARDTTLDTACIDQSTVAIAGMAKAQQEALLEMFFSRSKIVPGLIMDDGNRLLAVFETFNKRVELNELLASEGLIKSAVTLLRTLRSTDKNLYSLARIRFDKLDGVDTNAPENMWSLTPVVSLVLALAARMHAHGFISSNKTLDSATPGWAKLADIVPDLVTGDLIAADAIILAMKKPGIA", "soluble on expression in E. coli": "not soluble"}, {"sequence": "MSLTRISELPPQIRQEIEQLDQYIQKQVQISHHLKADTIDHDELIDSIPRDVAYLLKSESATSQYLKQDLKKISSFKSLIDEDLLDTQTFSVLLQQLLTPGSKISSNDLDKFFQKKIHLYEKKLEDYCRILSDIETAVNGIDTDLFGAPNNPNSTAITADLGSSEAENLLQLKTGLAAIVSTVIEEFTLFMDIAERIAVLHQKTKTLASLSEGHHHHHH", "soluble on expression in E. coli": "soluble"}, {"sequence": "MGSDKIHHHHHHMTAPKIIDMQALRIFLAAAKDQNMSIAASKLGLTQSAVSQAIGQLEEQFGIKLLDRNRRPLTLTSAGYVLYERGEQLVSAALNLKGAVLEAGHGVRPAIRLGLVDSVATTCGTSIIKQLMPRVAQLKLQTGLSFDVGAALIDRRVDLAITSEPMHRENGLVRYRVLTEQFVVIFSPGLEVADRENTNLALLSAQLPMIRYRSQSHLGRQAETVLRRADLEIPQFLEVDTADTLTSMVAGGLGWALTTPLCLLQAQEHAKRVGIGFLQSSGDSRSIYLLARGGKFDSLIKDTFDITVSVLKEECLARLAYIHPSLDRHAMMGEWPGIAGHSKTTGARRQPDISSEGIE", "soluble on expression in E. coli": "not soluble"}, {"sequence": "MITLIFPGFNNVHVSGMDIEEKIRKIEEEIQKTPYNKATAHHIGKLKAKISRLKEEALQRKTSSGKGRGFHIKKSGDSTVVLIGFPSVGKSTLLNELTSAESKVGDYQFTTLEIVPGVMEYRGAQIQIFDIPGIITGASRGRGRGREILSVARSADLIVIVLDVFNTDHMDIILRELRDVGIRPNETPPDVIVKRRKLGGVKLSATVELTHLDEKIIRSVLNEYGIHNADVLIRDDITVDQFIDVMEANRAYIPAITVINKIDLVDESYLEGLREKFPEALFISADRDINIDELREEIFNRLGLIRIYLKPQGKKADYDEPLIIREGSTVGDVCQKLHRDFVRKFRHARVWGSSVKFDGQKVGLEHVLNDEDVLRIIIKK", "soluble on expression in E. coli": "not soluble"}, {"sequence": "MTNEEPVPSTSSVLSAAEKNVKIETPSRKRKGLDIDALWRKKFKDVENQKSPEKSEKSEKTIKEEPLETHPSGERKLRSASKDSKSLSKETHNTISTRSSSSGTPRKKMEPEDVKPNIKMLKKSLPVSFQCSNLNDGTVGDASVMLDPTKISLHSSSVAYGEESQDEMEVIQHSTDDPNGTREEFDYNQIEYGNAVTPNGTYTLYAPDSNYAPYYQYSNNMQSSPQDNAPYLVPAPQSPVSIDDADSINLPNNQRASPATVNWLFENYEIGEGSLPRCELYDHYKKHCAEHRMDPVNAASFGKLIRSVFHNLKTRRLGTRGNSKYHYYGIRLKDSSTLHSMQHPQPQIIQNTYTPPMQLPQRDAYADTVNQVAAIKYMDVEIPDKRARKDNSSSSSSCRDSVSPCMDLPAQQTIQHTPVHSVIPSTQQPAPLHNNNVVSYVVTESDKAAMGKIDLPIVPFPDKDALMATIGFRKLGVGEEELNSLIDIYEILCREILALIKNIDFASVEDTWSKFWSGNFGVDRDHISALCTLDQVQDYIIEVDLALYQTIVDTLIPNVLLSELSTGMTQTCRTFAKNIDVYLRKSLMLANLGEFFVKKKIQAIKYLQQGLKRYTSLNHLAHASRGVLMKPEQVQQMYQDYIRVDINTVHQQAGWICGCDSVMVHHVNNAFKHNLQRMSAMEVWAEWLESIVDQVLAKYHDKPANVIANVGKQFLLNWSFYTSMIIRDLTLRSAMSFGSFTLIRLLADDYMYYLIESKIAKAGKQQLITVIRADKDWPLTTNPQEYIVVANDNDEDLDLEKAGLL", "soluble on expression in E. coli": "not soluble"}, {"sequence": "MMQTSTSSRVRRYPYQITLSLVLKGFYSPSAPSYDFCLVLLPTLFLIDLMPIKFSLHVTIGIGEATPVPIFFFSAPWYFRSGNPLPHCVRAYRCKVNFPFFRLGWSTWLHY", "soluble on expression in E. coli": "soluble"}, {"sequence": "MELIRNLDDANMGEVYWRLYRRYISLFIENEADDAYAWRCARALDELDDAVIERLCAASLRYRAARLERLGESAEEVAPARGVLERIEPGELIVPDPEQGDEAVIHLSLNCEWDREHGMEWIVRGGEVLYVGPFHGEDPWRDFTVKEPWNYA", "soluble on expression in E. coli": "not soluble"}, {"sequence": "MENLQIGVVGVGVMGKSLALNFESKGYSVALYDISKEKVDETIEENRGKNLVGTHIVEEFVNSLESPRKILLMVNAGEITDKAIDSLVPHLDKGDILIDGGNTYFVDTIRRNKRLAEEGINFIGAGVSGGEEGALKGPSIMPGGQKDAYEKVKDMLENISAKVNNEPCCSYIGPNGAGHYVKMVHNGIEYGDMQLICEAYFFLKQTLDLTAEEFHEIFAEWNKGELNSYLIEITADIFKKKDEETGKPLVDVILDTAGQKGTGKWTSQSALDLGISLPIITESVFARCISALKEERVNASKVLSGPKDKTAIGVEKAELIEAVRQALYMSKICSYAQGFTQLKAASEEYNWNLDFGSISMLWRGGCIIRAAFLQNIKEAYETNTDLPNLLLDPYFKEIVESYQGGLRQIISMAVQQGIPIPAFSAAISYYDSYRTAKLPANLLQAQRDYFGAHTYKRVDKEGTFHTKWI", "soluble on expression in E. coli": "not soluble"}, {"sequence": "MGSDKIHHHHHHMTMQPKYRELLLDEDVRRWFENLKAKSVLTATVALRNLGHYCELTGTTPHGILNKARANEKDFRYEFTDFVRKMEKEGKAGSYIARFKKVILSWLKFNDIRLQLTVNIAGENETPTIVNERVPSKEELARILRKATSRGRVAIAIMAFSGLRPESLGDYEGTDGLRLGDLKELKLSDEIQFDKIPATVMVKSKLSKARHHYFSFIGEEGTTYIREYLDERRKQGEELTYESPLLQFDVRGVKKNAFLRTTLVTRDIREAIEQAGLKMRPYVLRAYFSTALDIAESKGLISHPWRQFIMGHKGDIEARYSTNKRLPPDIIDEMRESYNKCTKFLETRISDVSEENARLYLQQQLLSAVGYRQDEIDKMNLAETSTEDFQKLLRDKVAGAMASNGSKQRLVSMNEIEKLLGEGYEFQAVLPNGKAIMKMPF", "soluble on expression in E. coli": "not soluble"}, {"sequence": "MGSDKIHHHHHHVRNYTYRYLNTIALPMETVRLISRINEYKGKQDLYKQQAPQVLDTLRDVAVIQSTKASNAIEGIVVTESRLHTIMSKSADPADRSEAEIAGYRDVLNLIHASARDIPINANVLLQLHKELYKFVPVEGGRWKNVDNEISESFPDGTRRTRFVPVPAFETPASVQALCDSLRERRQQEDVDPLILTSLFVLDFLSIHPFNDGNGRMSRLLTLLLLYQEGFEVGRYISLEKIVESRKEDYYESLRLSSIHWHQNQQDPFPWVNYLLSTILAAYKELEDRVGLITTGNQNKAGRIRQFVESRITPFTKADVRNACPDVSEATINRLLRELRDEGLIKPSGRGRGAKWIKR", "soluble on expression in E. coli": "not soluble"}]}]}
